{"source": "paper PMC6733264", "about": "(ACS chemical biology, 2019)", "target": "kinase domain of BRAF^WT (human, UniProt P15056 457-717)", "sequence (P15056 whole entry, looked up, the tested form may be a part)": "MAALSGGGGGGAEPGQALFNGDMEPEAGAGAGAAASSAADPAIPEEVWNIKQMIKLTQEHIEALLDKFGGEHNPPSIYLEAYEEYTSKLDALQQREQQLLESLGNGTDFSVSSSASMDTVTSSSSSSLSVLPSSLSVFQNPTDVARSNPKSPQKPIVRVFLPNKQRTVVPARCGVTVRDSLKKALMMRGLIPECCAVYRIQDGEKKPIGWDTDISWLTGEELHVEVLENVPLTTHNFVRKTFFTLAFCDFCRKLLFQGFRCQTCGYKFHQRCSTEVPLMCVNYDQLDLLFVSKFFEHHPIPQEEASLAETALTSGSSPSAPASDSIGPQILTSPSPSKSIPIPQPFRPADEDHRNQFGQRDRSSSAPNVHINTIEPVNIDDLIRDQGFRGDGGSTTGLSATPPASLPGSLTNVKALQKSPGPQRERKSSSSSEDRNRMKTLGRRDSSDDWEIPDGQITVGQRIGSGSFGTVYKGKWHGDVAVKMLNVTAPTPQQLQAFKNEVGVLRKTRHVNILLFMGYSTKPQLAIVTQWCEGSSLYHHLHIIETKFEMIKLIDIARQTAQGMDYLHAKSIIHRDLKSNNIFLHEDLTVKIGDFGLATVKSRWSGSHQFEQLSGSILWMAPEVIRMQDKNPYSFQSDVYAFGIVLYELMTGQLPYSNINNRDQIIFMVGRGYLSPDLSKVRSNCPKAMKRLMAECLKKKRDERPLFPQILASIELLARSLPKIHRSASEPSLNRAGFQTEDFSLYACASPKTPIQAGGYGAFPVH", "experiment": "other fluorescence titration", "note": "Ends that are not written are not given here.", "data": [{"binder": "TRHVNILLFM (also: Cy3 label, end not given here)", "note": "[Braftide-Cy3]", "values": [{"measurement": "Kd", "result": 6.69, "unit": "µM"}]}]}
